Where a chain is given by its changes, count along the chain named. Where two headings read alike, the source gives them in different places. One block for each binder: values may come before it.
Experiments:
[1] = target: T1, Claudin 18.2 (CLDN18.2), expressed on CHOS-CLDN 18.2 / HEK293-CLDN 18.2 / HCC827-CLDN 18.2 cells (human, UniProt P56856-2 1-261); experiment: FACS, CHOS-CLDN18.2 cells, 5 µg/ml
T1 construct: whole, on cells; The species is not repeated for the CHOS-CLDN 18.2 cells; also called claudin-18A2
Experimental: (§1) The initial concentration of the antibody was 20 μg/ml, it was diluted at 1:4, and incubated at 4° C. for 60 min.

[2] = target: T1, Claudin 18.2 (CLDN18.2), expressed on …; experiment: FACS, CHOS-CLDN18.2 cells, 10 µg/ml
Experimental: (§2) The initial concentration of the antibody was 20 μg/mkit was diluted at 1:4, and incubated at 4° C. for 60 min.

[3] = target: T1, Claudin 18.2 (CLDN18.2), expressed on …; experiment: FACS, CHOS-CLDN18.2 cells, 1.250 µg/ml
Experimental: as §1

[4] = target: T1, Claudin 18.2 (CLDN18.2), expressed on …; experiment: FACS, CHOS-CLDN18.2 cells, 0.005 µg/ml
Experimental: as §1

[5] = target: T1, Claudin 18.2 (CLDN18.2), expressed on …; experiment: FACS, CHOS-CLDN18.2 cells, 0 µg/ml (background)
Experimental: as §1

[6] = target: T1, Claudin 18.2 (CLDN18.2), expressed on …; experiment: FACS, CHOS-CLDN18.2 cells, 20 µg/ml
Experimental: as §1

[7] = target: T1, Claudin 18.2 (CLDN18.2), expressed on …; experiment: FACS, CHOS-CLDN18.2 cells, 0.313 µg/ml
Experimental: as §1

[8] = target: T1, Claudin 18.2 (CLDN18.2), expressed on …; experiment: FACS, CHOS-CLDN18.2 cells
Experimental: as §1

[9] = target: T1, Claudin 18.2 (CLDN18.2), expressed on …; experiment: FACS, MFI on CHOS-CLDN18.2 over MFI on CHOS-CLDN18.1, 10 µg/ml
Experimental: as §2

[10] = target: T1, Claudin 18.2 (CLDN18.2), expressed on …; experiment: FACS, CHOS-CLDN18.2 cells, 0.078 µg/ml
Experimental: as §1

[11] = target: T1, Claudin 18.2 (CLDN18.2), expressed on …; experiment: FACS, CHOS-CLDN18.2 cells, 0.020 µg/ml
Experimental: as §1

[12] = target: T1, Claudin 18.2 (CLDN18.2), expressed on …; experiment: FACS, CHOS-CLDN18.2 cells, 0 µg/ml (background); remark: listed apart in the source
Experimental: as §1

[13] = target: T1, Claudin 18.2 (CLDN18.2), expressed on …; experiment: FACS, CHOS-CLDN18.2 cells, 0.313 µg/ml; remark: listed apart in the source
Experimental: as §1

[14] = target: T1, Claudin 18.2 (CLDN18.2), expressed on …; experiment: FACS, CHOS-CLDN18.2 cells; remark: listed apart in the source
Experimental: as §1

[15] = target: T1, Claudin 18.2 (CLDN18.2), expressed on …; experiment: FACS, CHOS-CLDN18.2 cells, 20 µg/ml; remark: listed apart in the source
Experimental: as §1

[16] = target: T1, Claudin 18.2 (CLDN18.2), expressed on …; experiment: FACS, CHOS-CLDN18.2 cells, 0.078 µg/ml; remark: listed apart in the source
Experimental: as §1

[17] = target: T1, Claudin 18.2 (CLDN18.2), expressed on …; experiment: FACS, CHOS-CLDN18.2 cells, 1.250 µg/ml; remark: listed apart in the source
Experimental: as §1

[18] = target: T1, Claudin 18.2 (CLDN18.2), expressed on …; experiment: FACS, CHOS-CLDN18.2 cells, 0.020 µg/ml; remark: listed apart in the source
Experimental: as §1

[19] = target: T1, Claudin 18.2 (CLDN18.2), expressed on …; experiment: FACS, CHOS-CLDN18.2 cells, 5 µg/ml; remark: listed apart in the source
Experimental: as §1

[20] = target: T1, Claudin 18.2 (CLDN18.2), expressed on …; experiment: FACS, CHOS-CLDN18.2 cells, 0.005 µg/ml; remark: listed apart in the source
Experimental: as §1

B1: QP14441441 (antibody, human IgG1, kappa, V domains shown)
VH: QVQLVQSGAEVKKPGASVKVSCKASGYAFSSYWMNWVRQAPGQGLEWIGQIYPGNGDTTYNGKFKGRVTMTADKSTSTVYMELSSLRSEDTAVYYCARFVKGNAMDYWGQGTLVTVSS
VL: DIVMTQSPDSLAVSLGERATISCKSSQSLLNSGNQKNYLTWYQQKPGQPPKLLIYWASTRESGVPDRFSGSGSGIDFTLTISSVQAEDVAVYYCQNAYSYPFTFGQGTKLEIKR
notes: Humanized from QP192193
FACS reading [1]: 151000 | MFI [2]: 693000 | FACS reading [3]: 125000 | FACS reading [4]: 4230 | FACS reading [5]: 732 | FACS reading [6]: 175000 | FACS reading [7]: 74700 | EC50 [8]: 0.484 µg/mL | max [8]: 175000 | CLDN18.2/CLDN18.1 (MFI ratio) [9]: 608 | FACS reading [10]: 27300 | FACS reading [11]: 10100

B2: QP14501448 (antibody, human IgG1, kappa, V domains shown)
VH: EVQLVESGGGLVQPGGSLRLSCAASGFTFSSFGMHWVRQAPGKGLEWVAYISSGSNSIYYVDTVKGRFTISRDNAKNSLYLQMNSLRDEDTAVYYCARNAYYGNSFDYWGQGTLVTVSS
VL: B1 VL with S69T, I75T, D76V, V84L, Y93F, A97N, S99Y, F102L, Q106G, L110V
notes: Humanized from QP199200
FACS reading [12]: 732 | FACS reading [13]: 45600 | MFI [2]: 540000 | EC50 [14]: 0.498 µg/mL | max [14]: 149000 | FACS reading [15]: 117000 | FACS reading [16]: 14200 | CLDN18.2/CLDN18.1 (MFI ratio) [9]: 501 | FACS reading [17]: 108000 | FACS reading [18]: 7460 | FACS reading [19]: 149000 | FACS reading [20]: 2480

B4: QP14451442 (antibody, human IgG1, kappa, V domains shown)
VH: B1 VH with Y95F
VL: B1 VL with L52M
notes: Humanized from QP192193
FACS reading [1]: 138000 | MFI [2]: 653000 | FACS reading [3]: 137000 | FACS reading [4]: 4790 | FACS reading [5]: 732 | FACS reading [6]: 177000 | FACS reading [7]: 82300 | EC50 [8]: 0.344 µg/mL | max [8]: 177000 | CLDN18.2/CLDN18.1 (MFI ratio) [9]: 463 | FACS reading [10]: 29800 | FACS reading [11]: 11100

B7: QP192193 (antibody, human IgG1, V domains shown)
VH: QVQLQQSGAELVRPGSSVKISCKASGYAFSSYWMNWVKQRPGQGLEWIGQIYPGNGDTTYNGKFKGQATLTADKSSSTVYMQLSSLTSEDSAVYFCARFVKGNAMDYWGQGTSVTVSS
VL: DIVMTQSPSSLTVTAGEKVTMSCKSSQSLLNSGNQKNYLTWYQQNPGQPPKMLIYWASTRESGVPDRFTGSGSGIDFSLTISSVQAEDLALYYCQNAYSYPFTFGSGTKLEIK
notes: Chimeric; also called 40F1; mouse-derived chimeric antibody QP192193
FACS reading [1]: 177000 | MFI [2]: 644000 | FACS reading [3]: 168000 | FACS reading [4]: 3790 | FACS reading [5]: 732 | FACS reading [6]: 155000 | FACS reading [7]: 74600 | EC50 [8]: 0.361 µg/mL | max [8]: 177000 | CLDN18.2/CLDN18.1 (MFI ratio) [9]: 627 | FACS reading [10]: 27800 | FACS reading [11]: 11400

Other lines, results leading:

FACS reading [12]: 732 | FACS reading [13]: 39500 | MFI [2]: 505000 | EC50 [14]: 0.962 µg/mL | max [14]: 143000 | FACS reading [15]: 160000 | FACS reading [16]: 13900 | CLDN18.2/CLDN18.1 (MFI ratio) [9]: 510 | FACS reading [17]: 96200 | FACS reading [18]: 6350 | FACS reading [19]: 143000 | FACS reading [20]: 2330
B3: QP14501446 (antibody, human IgG1, kappa, V domains shown)
VH: B2 VH
VL: B1 VL with S22N, I75T, V84L, A97N, S99Y, F102L, Q106G, L110V
notes: Humanized from QP199200

FACS reading [12]: 732 | FACS reading [13]: 45100 | MFI [2]: 484000 | EC50 [14]: 0.666 µg/mL | max [14]: 154000 | FACS reading [15]: 183000 | FACS reading [16]: 19200 | CLDN18.2/CLDN18.1 (MFI ratio) [9]: 487 | FACS reading [17]: 132000 | FACS reading [18]: 6320 | FACS reading [19]: 154000 | FACS reading [20]: 2410
B5: QP14491448 (antibody, human IgG1, kappa, V domains shown)
VH: B2 VH with A49S
VL: B1 VL with S69T, I75T, D76V, V84L, Y93F, A97N, S99Y, F102L, Q106G, L110V
notes: Humanized from QP199200

FACS reading [12]: 732 | FACS reading [13]: 50600 | MFI [2]: 514000 | EC50 [14]: 1.19 µg/mL | max [14]: 165000 | FACS reading [15]: 218000 | FACS reading [16]: 19900 | CLDN18.2/CLDN18.1 (MFI ratio) [9]: 560 | FACS reading [17]: 132000 | FACS reading [18]: 7520 | FACS reading [19]: 165000 | FACS reading [20]: 2760
B6: QP199200 (antibody, human IgG1, V domains shown)
VH: DVQLVESGGGLVQPGGSRKLSCAASGFTFSSFGMHWVRQAPEKGLEWVAYISSGSNSIYYVDTVKGRFTISRDNPKNTLFLQMTSLKSEDTAMYYCARNAYYGNSFDYWGQGTTLTVSS
VL: DIVMTQSPSSLTVTAGEKVTMSCKSSQSLLNSGNQKNYLTWYQQKPGQPPKLLIYWASTRESGVPDRFTGSGSGTVFTLTISSVQAEDLAVYFCQNNYYYPLTFGAGTKLELK
notes: Chimeric; also called 43C11; mouse-derived chimeric antibody QP199200
